Experimental findings from patent publication US20260042834A1 (HBM ALPHA THERAPEUTICS, published 2026) are described below.

Residue numbers refer to the chain shown, from its start. Like-named read-outs stand apart in the source and are kept apart here.

The target of assay [1] is T1, corticotropin-releasing hormone (CRH) peptide (human and mouse (same sequence), not fully specified).
T1 peptide: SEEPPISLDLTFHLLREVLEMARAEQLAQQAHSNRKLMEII
As to the kind of experiment: cell-based or functional assay.

Assay [2] deals with T1, corticotropin-releasing hormone (CRH) …. The experiment in a line: cell-based or functional assay.
In assay [3] the target is T2, CRH (NT-Biotin) (human and mouse (same sequence), not fully specified; biotin at the N-terminus).
T2 peptide: T1 peptide
As to the kind of experiment: ELISA, biotinylated CRH on streptavidin plate. As to the method: (§1) Streptavidin (Thermo, Cat: 21125) was diluted in PBS to a concentration of 2 μg/ml. 100 μl of diluted streptavidin was added per well to ELISA microplates, and the plates were incubated overnight at 4° C. […] 100 μL of 3,3′,5,5′-tetramethylbenzidine (TMB) substrate (Biopanda, Cat: TMB-S-003) was added, and the plates were incubated at room temperature for 15 minutes. 100 μL of ELISA stopping solution (Solarbio, Cat #: C1058) was added to terminate the reaction, and the optical density at 450 nm (OD450 nm) was determined by an ELISA plate reader (Molecular Devices, Spectra max 384 plus).
A general note: An ELISA detects its analyte on a solid surface through an enzyme-linked reagent.

Assay [4] addresses T3, CRH (CT-Biotin) (human and mouse (same sequence), biotin on an added C-terminal K (CRH-K-Biotin)).
T3 construct: also called Peptide 4 (CRH-Biotin)
T3 peptide: T1 peptide
As to the kind of experiment: ELISA, biotinylated CRH on streptavidin plate. As for the experimental part: as §1

In assay [5] the target is T1, corticotropin-releasing hormone (CRH) …. As to the kind of experiment: cell-based or functional assay.
Assay [6] concerns the target T2, CRH (NT-Biotin). As to the kind of experiment: ELISA, biotinylated CRH on streptavidin plate. As for the experimental part: as §1
In assay [7] the target is T3, CRH (CT-Biotin). The experiment in a line: ELISA, biotinylated CRH on streptavidin plate. As for the experimental part:
as §1

B1: PR302064 (antibody, human IgG1, kappa, V domains shown)
VH: EMQLVESGGGLVKPGGSLRLSCAASGFTFSNYWMNWVRQAPGKGLEWVAEIRLKSNNYATHYAESVKGRFTISRDDSKSTVYLQMNSLKTEDTAVYYCTVGTLVYWGQGTLVTVSS
VL: DIVLTQSPDSLAVSLGERATINCRASQSVSTSTYNYMHWFQQKPGQPPKLLIKFASNLESGVPDRFSGSGSGTDFTLTISSLQAEDTAVYYCQHSWEIPYTFGQGTKLEIKR
notes: humanized variant of PR301777
As usually defined, the EC50 is the concentration that produces a half-maximal response. Read a high EC50 as weaker potency. B1: the “hCRHR1 Luciferase Reporter Assay IC50” value was determined as 0.531 nM in assay [1] and 0.989 nM in assay [2]. The “mCrhr1 Luciferase Reporter Assay IC50” value in assay [1] was 2.39 nM; in assay [2] it was 4.92 nM. Moreover, the EC50 worked out at 0.062 nM with CRH (NT-Biotin) [3] and 0.022 nM with CRH (CT-Biotin) [4].

B2: PR302041 (antibody, human IgG1, kappa, V domains shown)
VH: B1 VH with K13Q, T80S
VL: DIQLTQSPSSLSASVGDRVTITCRASQSVSTSTYNYMHWFQQKPGKAPKLLIKFASNLESGVPSRFSGSGSGTDFTLTISSLQPEDTATYYCQHSWEIPYTFGQGTKLEIKR
notes: humanized variant of PR301777
As for B2, in assay [1], the “hCRHR1 Luciferase Reporter Assay IC50” value is 2.54 nM and the “mCrhr1 Luciferase Reporter Assay IC50” value amounted to 7.17 nM. The same molecule yielded an EC50 in the assay with CRH (NT-Biotin) [3] of 0.063 nM. This molecule also gave a 50% effective concentration (EC50) with CRH (CT-Biotin) [4] of 0.035 nM.

B3: PR302066 (antibody, human IgG1, kappa, V domains shown)
VH: B1 VH
VL: EIVLTQSPATLSLSPGERATLSCRASQSVSTSTYNYMHWFQQKPGQAPRLLIKFASNLESGIPARFSGSGSGTDFTLTISSLEPEDTAVYYCQHSWEIPYTFGQGTKLEIKR
notes: humanized variant of PR301777
Turning to B3, in assay [1], the “hCRHR1 Luciferase Reporter Assay IC50” value came out at 2.49 nM and the “mCrhr1 Luciferase Reporter Assay IC50” value amounted to 11.5 nM. Further, the EC50 with CRH (NT-Biotin) [3] amounted to 0.077 nM. In the assay with CRH (CT-Biotin) [4], the EC50 is 0.019 nM.

B4: PR302048 (antibody, human IgG1, kappa, V domains shown)
VH: B1 VH with M2V, K13Q, R19K, P41S, A49G, S79N, V81A, V100R
VL: B2 VL
notes: humanized variant of PR301777
Consider B4, for which, in assay [1], the “hCRHR1 Luciferase Reporter Assay IC50” value was 6.66 nM and the “mCrhr1 Luciferase Reporter Assay IC50” value is 33.3 nM. Further, the EC50 with CRH (NT-Biotin) [3] is 0.043 nM. For the same molecule, the EC50 with CRH (CT-Biotin) [4] was 0.024 nM.

B5: PR302069 (antibody, human IgG1, kappa, V domains shown)
VH: B1 VH
VL: B2 VL
notes: humanized variant of PR301777
For the molecule B5, in assay [1], the “hCRHR1 Luciferase Reporter Assay IC50” value stood at 1.54 nM and the “mCrhr1 Luciferase Reporter Assay IC50” value was 4.4 nM. The same molecule yielded a 50% effective concentration (EC50) in the assay with CRH (NT-Biotin) [3] of 0.061 nM. In the assay with CRH (CT-Biotin) [4], this molecule registered a half-maximal effective concentration (EC50) of 0.016 nM.

B6: PR302034 (antibody, human IgG1, kappa, V domains shown)
VH: B1 VH with M2V, K13Q, A49G, S79N, T80S, V81L
VL: B2 VL
notes: humanized variant of PR301777
For B6, in assay [1], the “hCRHR1 Luciferase Reporter Assay IC50” value is 6.87 nM. Also, the “mCrhr1 Luciferase Reporter Assay IC50” value in assay [1] amounted to 204 nM. Moreover, the values for the EC50 with CRH (NT-Biotin) [3] and with CRH (CT-Biotin) [4] were 0.026 nM and 0.022 nM, respectively.

B7: PR005656 (antibody, human IgG1, kappa, V domains shown)
VH: EVQLVESGGVLVQPGGSLRLSCAASGFTFSSYWMTWVRQAPGKGLEWVANIKQEGSEKYYVDSVKGRFTISRDNAKNSLFLQMNSLRAEDTAVYYCARTLIFDYWGQGTLVTVSS
VL: DIVMTQSPLSLPVTPGEPASISCRSSQSLLHSTGYNSLEWYLQKPGQSPQLLIYLGSNRASGVPDRFSGSGSGTDFTLKISRVEAEDVGIYYCMQTLQTPITFGQGTRLEIKR
notes: PTM-removal variant of PR004290
As for B7, in assay [5], the “hCRHR1 Luciferase Reporter Assay IC50” value is 1.74 nM and the “mCrhr1 Luciferase Reporter Assay IC50” value stood at 4.26 nM. Also, the EC50 in the assay with CRH (NT-Biotin) [6] was determined as 0.026 nM. The molecule further displayed a 50% effective concentration (EC50) with CRH (CT-Biotin) [7] of 0.033 nM.

B8: PR006152 (antibody, human IgG1, kappa, V domains shown)
VH: B7 VH with E54D, G55S
VL: B7 VL with S37P
notes: as for B7
Consider B8, for which, in assay [5], the “hCRHR1 Luciferase Reporter Assay IC50” value was 2.19 nM and the “mCrhr1 Luciferase Reporter Assay IC50” value was 4.4 nM. The same molecule came in with an EC50 in the assay with CRH (NT-Biotin) [6] of 0.028 nM. The molecule also registered a 50% effective concentration (EC50) with CRH (CT-Biotin) [7] of 0.023 nM.

B9: PR006147 (antibody, human IgG1, kappa, V domains shown)
VH: B7 VH with E54D, G55A
VL: B7 VL with N36H
notes: as for B7
Take B9: in assay [5], the “hCRHR1 Luciferase Reporter Assay IC50” value stood at 12.1 nM and the “mCrhr1 Luciferase Reporter Assay IC50” value worked out at 39.9 nM. The molecule further displayed an EC50 with CRH (NT-Biotin) [6] of 0.023 nM. The concentration giving a half-maximal response (EC50) in the assay with CRH (CT-Biotin) [7] is 0.027 nM.

B10: PR006149 (antibody, human IgG1, kappa, V domains shown)
VH: B7 VH with E54D, G55A
VL: B7 VL with N36S
notes: as for B7
On to B10, for which the “hCRHR1 Luciferase Reporter Assay IC50” value in assay [5] was found to be 8.04 nM. The “mCrhr1 Luciferase Reporter Assay IC50” value in assay [5] came to 40.1 nM. Also, the values for the EC50 with CRH (NT-Biotin) [6] and with CRH (CT-Biotin) [7] were 0.019 nM and 0.027 nM, respectively.

B11: PR006144 (antibody, human IgG1, kappa, V domains shown)
VH: B7 VH
VL: B7 VL with S37P
notes: as for B7
Regarding B11, the “hCRHR1 Luciferase Reporter Assay IC50” value in assay [5] was 1.2 nM. For the same molecule, in assay [5], the “mCrhr1 Luciferase Reporter Assay IC50” value is 3.6 nM. Further, the values for the EC50 with CRH (NT-Biotin) [6] and with CRH (CT-Biotin) [7] were 0.033 nM and 0.032 nM, respectively.

B12: PR006142 (antibody, human IgG1, kappa, V domains shown)
VH: B7 VH
VL: B7 VL with N36D
notes: as for B7
Consider B12, for which the “hCRHR1 Luciferase Reporter Assay IC50” value in assay [5] was 4.4 nM. For the same molecule, the results for the EC50 with CRH (NT-Biotin) [6] and in the assay with CRH (CT-Biotin) [7] were 0.048 nM and 0.046 nM, respectively.

B13: PR006150 (antibody, human IgG1, kappa, V domains shown)
VH: B7 VH with E54D, G55S
VL: B7 VL with N36D
notes: as for B7
With B13, in assay [5], the “hCRHR1 Luciferase Reporter Assay IC50” value is 5.88 nM and the “mCrhr1 Luciferase Reporter Assay IC50” value is 18.3 nM. In the assay with CRH (NT-Biotin) [6], this molecule yielded an EC50 of 0.013 nM. In addition, the 50% effective concentration (EC50) with CRH (CT-Biotin) [7] came to 0.016 nM.

B14: PR005660 (antibody, human IgG1, kappa, V domains shown)
VH: B7 VH
VL: B7 VL with N36Q
notes: as for B7
As for B14, in assay [5], the “hCRHR1 Luciferase Reporter Assay IC50” value is 10.3 nM and the “mCrhr1 Luciferase Reporter Assay IC50” value was determined as 29 nM. Further, the half-maximal effective concentration (EC50) with CRH (NT-Biotin) [6] stood at 0.033 nM. This molecule had an EC50 with CRH (CT-Biotin) [7] of 0.051 nM.

B15: PR006148 (antibody, human IgG1, kappa, V domains shown)
VH: B7 VH with E54D, G55A
VL: B7 VL with S37P
notes: as for B7
For the molecule B15, in assay [5], the “hCRHR1 Luciferase Reporter Assay IC50” value was determined as 2.5 nM and the “mCrhr1 Luciferase Reporter Assay IC50” value is 4.87 nM. In the assay with CRH (NT-Biotin) [6], this molecule had an EC50 of 0.035 nM. Moreover, the 50% effective concentration (EC50) with CRH (CT-Biotin) [7] was determined as 0.03 nM.

B16: PR006146 (antibody, human IgG1, kappa, V domains shown)
VH: B7 VH with E54D, G55A
VL: B7 VL with N36D
notes: as for B7
For B16, the “hCRHR1 Luciferase Reporter Assay IC50” value in assay [5] was found to be 4.89 nM. For the same molecule, the “mCrhr1 Luciferase Reporter Assay IC50” value in assay [5] was determined as 18 nM. Moreover, the results for the EC50 with CRH (NT-Biotin) [6] and in the assay with CRH (CT-Biotin) [7] were 0.025 nM and 0.024 nM, respectively.

B17: PR006153 (antibody, human IgG1, kappa, V domains shown)
VH: B7 VH with E54D, G55S
VL: B7 VL with N36S
notes: as for B7
Turning to B17, in assay [5], the “hCRHR1 Luciferase Reporter Assay IC50” value was found to be 12.4 nM and the “mCrhr1 Luciferase Reporter Assay IC50” value stood at 39.5 nM. Further, the EC50 in the assay with CRH (NT-Biotin) [6] is 0.019 nM. This molecule also returned a concentration for a half-maximal effect (EC50) with CRH (CT-Biotin) [7] of 0.019 nM.

B18: PR006151 (antibody, human IgG1, kappa, V domains shown)
VH: B7 VH with E54D, G55S
VL: B7 VL with N36H
notes: as for B7
On to B18, for which, in assay [5], the “hCRHR1 Luciferase Reporter Assay IC50” value is 13.6 nM. In addition, the “mCrhr1 Luciferase Reporter Assay IC50” value in assay [5] is 57.6 nM. Further, the results for the EC50 with CRH (NT-Biotin) [6] and in the assay with CRH (CT-Biotin) [7] were 0.03 nM and 0.023 nM, respectively.

B19: PR005662 (antibody, human IgG1, kappa, V domains shown)
VH: B7 VH with E54D, G55A
VL: B7 VL with N36Q
notes: as for B7
Consider B19, for which, in assay [5], the “hCRHR1 Luciferase Reporter Assay IC50” value was 15.8 nM and the “mCrhr1 Luciferase Reporter Assay IC50” value is 42.4 nM. This molecule yielded an EC50 in the assay with CRH (NT-Biotin) [6] of 0.023 nM. For the same molecule, the concentration for a half-maximal effect (EC50) with CRH (CT-Biotin) [7] came to 0.052 nM.

B20: PR005658 (antibody, human IgG1, kappa, V domains shown)
VH: B7 VH with E54D
VL: B7 VL with N36Q
notes: as for B7
On to B20, for which, in assay [5], the “hCRHR1 Luciferase Reporter Assay IC50” value is 16.2 nM and the “mCrhr1 Luciferase Reporter Assay IC50” value worked out at 29.7 nM. Besides, in the assay with CRH (NT-Biotin) [6], the EC50 was 0.026 nM. The EC50 in the assay with CRH (CT-Biotin) [7] came to 0.044 nM.
